{
  "source": "patent US20110236397",
  "key": {"[1]": {"test_system": "CD2AP with the cathepsin L cleavage site LSAAE deleted"}, "[2]": {"test_system": "C-terminal FLAG-tagged CD2AP (71 kD)"}, "[3]": {"test_system": "full-length CD2AP, GFP-tagged (GFP-CD2AP fusion protein, 98 kD)"}},
  "data": [
    {"substance": "purified cathepsin L enzyme (Sigma, specific activity 4.13 U/mg)", "values": [
      {"measurement": "in vitro cleavage assay, immunoblot", "setting": "[1]", "value": "In absence of this cleavage site, the characteristic p32 fragment was no longer observed after enzymatic digest with cathepsin L enzyme"},
      {"measurement": "in vitro cleavage assay, immunoblot", "setting": "[2]", "value": "This experiment yielded a C-terminal 44 kD fragment of CD2AP; the anti-FLAG antibody also detected a strong band corresponding to p32 fragment"},
      {"measurement": "in vitro cleavage assay, silver stain", "setting": "purified FLAG-CD2AP", "value": "cleavage assays performed at neutral conditions (pH 7.0) yielded a stable 32 kD CD2AP fragment (p32)"},
      {"measurement": "in vitro cleavage assay, immunoblot", "setting": "[3]", "value": "At neutral pH, CD2AP was cleaved into a stable 55 kD fragment as detected with an anti-GFP antibody"}
    ]}
  ]
}
